Experimental data from patent publication US20250382602.
Substitutions are numbered along the chain they refer to.

How the values were obtained:
Details in all cases: nanopore translocation; background mutations not given
[1] = biological target: T1, Dda 1993 K177I K177I (Enterobacteria phage T4) (UniProt P32270)
T1 sequence: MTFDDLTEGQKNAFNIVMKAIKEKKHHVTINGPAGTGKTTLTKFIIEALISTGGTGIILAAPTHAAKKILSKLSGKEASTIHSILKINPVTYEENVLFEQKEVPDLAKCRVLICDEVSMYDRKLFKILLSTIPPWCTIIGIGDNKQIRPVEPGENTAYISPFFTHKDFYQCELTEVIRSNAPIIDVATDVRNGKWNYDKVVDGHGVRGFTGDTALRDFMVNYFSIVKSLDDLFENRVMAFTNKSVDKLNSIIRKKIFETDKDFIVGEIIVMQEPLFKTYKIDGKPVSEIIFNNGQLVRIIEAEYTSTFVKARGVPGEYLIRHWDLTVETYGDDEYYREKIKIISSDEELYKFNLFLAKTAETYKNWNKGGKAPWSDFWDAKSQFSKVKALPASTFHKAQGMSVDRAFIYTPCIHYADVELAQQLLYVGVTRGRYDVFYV

[2] = biological target: T2, Dda 1993 K177F K177F (Enterobacteria phage T4) (UniProt P32270)
T2 sequence: T1 sequence with I177F

[3] = biological target: T3, Dda 1993 K177W K177W (Enterobacteria phage T4) (UniProt P32270)
T3 sequence: T1 sequence with I177W

[4] = biological target: T4, Dda 1993 K177Y K177Y (Enterobacteria phage T4) (UniProt P32270)
T4 sequence: T1 sequence with I177Y

[5] = biological target: T5, Dda 1993 K177Q K177Q (Enterobacteria phage T4) (UniProt P32270)
T5 sequence: T1 sequence with I177Q

[6] = biological target: T6, Dda 1993 K177R K177R (Enterobacteria phage T4) (UniProt P32270)
T6 sequence: T1 sequence with I177R

Substance “barcoded 3.6 kb DNA analyte ligated to sequencing Y adaptor” has an activity (bps speed delta vs control) [1] of 43, an activity (bps speed delta vs control) [2] of -33.4 and an activity (bps speed delta vs control) [3] of -23.4. For the same substance, the activity (bps speed delta vs control) [4] was -43.9, the activity (bps speed delta vs control) [5] was 59.7 and the activity (bps speed delta vs control) [6] was 21.7.
